Read-outs that look alike come from different tables or passages of the source. Values belong to the binder of their own block, whether it stands above or below them.
How the values were obtained:
[1] = molecular target: T1, Human Tau 2N4R, wild type, recombinant full length (human, UniProt P10636 2-758); assay: direct ELISA on coated 2N4R Tau
T1 construct: Full length 2N4R isoform; monomer in SPR and ELISA; heparin-induced aggregates or seeds in the functional assays; also called Tau441; Tau-441
T1 sequence (P10636 other isoform, or with tags, fused parts or gaps limits assumed): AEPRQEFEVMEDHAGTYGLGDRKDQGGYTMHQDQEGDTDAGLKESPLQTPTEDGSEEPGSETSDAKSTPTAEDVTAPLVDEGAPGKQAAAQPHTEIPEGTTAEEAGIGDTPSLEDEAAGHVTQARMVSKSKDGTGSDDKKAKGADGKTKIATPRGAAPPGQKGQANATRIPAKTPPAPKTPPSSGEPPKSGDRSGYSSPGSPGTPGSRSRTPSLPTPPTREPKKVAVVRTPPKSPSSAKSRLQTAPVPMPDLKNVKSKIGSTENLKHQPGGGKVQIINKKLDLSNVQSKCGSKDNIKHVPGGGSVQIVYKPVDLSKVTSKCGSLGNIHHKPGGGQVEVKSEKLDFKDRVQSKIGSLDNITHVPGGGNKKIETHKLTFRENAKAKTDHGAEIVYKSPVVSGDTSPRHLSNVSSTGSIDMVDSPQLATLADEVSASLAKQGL

[2] = molecular target: T1, Human Tau 2N4R, wild type, recombinant …; assay: direct ELISA on coated 2N4R Tau; remark: listed apart in the source
Description: To test direct binding to Tau, 2N4R Tau was coated on 96-well plates and various concentrations of humanized mAbs were added to the wells. MAbs bound to Tau were detected with either an HRP-conjugated anti-mouse antibody (mouse [ms]7G6) or anti-human antibody (remaining samples). Samples were incubated for 1 h at room temperature in 96-well plates coated with 2N4R Tau. Following washing, HRP-conjugated anti-mouse or anti-human detection antibodies were added to the wells. The anti-mouse antibody was used to detect ms7G6. The amount of HRP activity in each well was measured by QuantaBlu fluorescent substrate and the RFUs were detected by a SpectraMax M5 plate reader.
Tau binding was analyzed by a direct ELISA as above. Samples were incubated for 1 hour at room temperature in 96-well plates coated with wild-type 2N4R Tau. After a wash step, HRP-conjugated anti-mouse or anti-human detection antibodies were added to the wells. The anti-mouse antibody was used to detect ms7G6. The amount of HRP activity in each well was measured by QuantaBlu fluorescent substrate and the RFUs were detected by a SpectraMax M5 plate reader. […] Therefore, Vκ Glu34 was critical for antigen binding.

[3] = molecular target: T1, Human Tau 2N4R, wild type, recombinant …; assay: SPR BIAcore, biotinylated mAb on streptavidin (CAP) chip, single cycle, 1:1 Langmuir
Description: (§1) 400 μg of each antibody was diluted to 2 mg/mL and buffer-exchanged into 0.1 M sodium bicarbonate, pH 8.3 using 0.5 mL Zeba™ 40 kDa MWCO desalting columns (Thermo). NHS-PEG4-biotin, prepared immediately before use by dissolving in water to a 20 mM final stock concentration, was added to antibodies at a 5:1 molar ratio (biotin:MAb) and conjugated for 1 hr at room temperature. Excess biotin was removed by two sequential buffer exchanges into 1×DPBS using 0.5 mL Zeba™ 40 kDa MWCO desalting columns. For the BIAcore™ assay, antibodies were diluted to 2 μg/mL in PBS-P+/0.2% BSA (the same preparation used for the running buffer), centrifuged at 14,000 g for 5 min at room temperature, and the supernatant transferred to a new tube. Injection time was subsequently determined for each antibody to achieve a capture level of ˜225 RU.
(§2) Biotinylated humanized and mouse mAbs were captured on a streptavidin-coated chip and kₐ, kd, and KD were determined for binding to Tau (Table 11). […] The affinity of 7G6-HCzu8-LCzu6, 7G6-HCzu24-LCzu15, 7G6-HCzu24-LCzu18, 7G6-HCzu25-LCzu15, and 7G6-HCzu25-LCzu18 were all similar.

[4] = molecular target: T1, Human Tau 2N4R, wild type, recombinant …; assay: SPR, streptavidin capture; against 7G6-HCzu8-LCzu6
Description: as §1, §2

binding result [1]: no binding
B1: 7G6-HCzu12-LCzu17 (antibody, human IgG1, kappa, V domains shown)
VH: EVQLLESGGGLVQPGGSLRLSCAASGYTFTTYWITWVRQAPGKGLEWVGDIYPGSSICNYNEKFKSRFTISVDNSKSTAYLQMNSLRAEDTAVYYCAREDGYDAWFAYWGQGTLVTVSS
VL: DVQMTQSPSSLSASVGDRVTITCRSSQSIVHSNGNTYLNWYQQKPGKAPKLLISKVSNRFSGVPSRFSGSGSGTDFTLTISSLQPEDFATYYCFQGSHVPFTFGQGTKLEIKR
notes: humanized, human IgG1 kappa; also called 7G6-LCzu17

binding result [2]: no binding
B2: 7G6-HCzu5-LCzu9 (antibody, human IgG1, kappa, V domains shown)
VH: QVQLVQSGAEVKKPGASVKVSCKASGYTFTTYWITWVRQAPGQGLEWMGDIYPGSSISNYNEKFKSRVTMTVDTSTSTAYMELSSLRSEDTAVYYCAREDGYDAWFAYWGQGTLVTVSS
VL: DVVMTQSPLSLPVTLGQPASISCRSSQSIVHSNGNTYLNWFQQRPGQSPRRLISKVSNRFSGVPDRFSGSGSGTDFTLKISRVEAEDVGVYYCFQGSHVPFTFGQGTKLEIKR
notes: humanized, human IgG1 kappa; also called 7G6-LCzu9

Kd [3]: 0.138 nM
koff [3]: 0.000313 s⁻¹
kon [3]: 2.28e+06 M⁻¹ s⁻¹
fold drop in affinity [4]: < 2 fold
B3: 7G6-HCzu8-LCzu21 (antibody, human IgG1, kappa, V domains shown)
VH: QVQLVQSGAEVKKPGASVKVSCKASGYTFTTYWITWVRQAPGQGLEWMGDIYPGSSISNYAQKFQGRVTMTRDTSTSTVYMELSSLRSEDTAVYYCAREDGYDAWFAYWGQGTLVTVSS
VL: DVVMTQSPLSLPVTLGQPASISCRSSQSILHSNGNTYLEWFQQRPGQSPRLLISKVSNRFSGVPDRFSGSGSGTDFTLKISRVEAEDVGVYYCFQGSHVPFTFGQGTKLEIKR
modifications: N-terminal pyroglutamic acid
notes: humanized, human IgG1 kappa

From patent US20190112365A1 (EISAI R AND D MANAGEMENT, published 2019)
